According to patent US20190248902A1 (published 2019):

T1: recombinant, soluble human ASGR-1 (human, UniProt P07306 62-291)
T1 construct: biotinylated in the binning assay; also called soluble huASGR-1; Soluble ASGR-1 (Amgen)
T1 sequence: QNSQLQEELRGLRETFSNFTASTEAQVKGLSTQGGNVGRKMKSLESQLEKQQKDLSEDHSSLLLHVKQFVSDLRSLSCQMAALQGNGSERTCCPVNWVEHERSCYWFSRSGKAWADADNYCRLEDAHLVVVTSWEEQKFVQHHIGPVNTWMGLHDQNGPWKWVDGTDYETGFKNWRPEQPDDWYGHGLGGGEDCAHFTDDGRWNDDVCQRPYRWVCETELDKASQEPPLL


What was measured:
[1] = biological target: T1, recombinant, soluble human ASGR-1; assay: Octet BLI dissociation, pH 5.6 plus calcium
Summary of the method: (§1)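 Antibodies were captured on anti-human Fc biosensors, and soluble ASGR-1 (6 ug/ml) was associated for 2 min in Tris buffer containing 1 mM CaCl2 at pH 7.4, followed by 10 min dissociation under each test condition. The signal at the end of association was set as 100%. Percent ASGR-1 still bound after 1 min of dissociation was compared with the pH 7.4 plus calcium control, and >10% extra dissociation was scored as sensitive.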

[2] = biological target: T1, recombinant, soluble human ASGR-1; assay: Octet BLI dissociation, pH 5.6 minus calcium
Summary of the method: as §1

[3] = biological target: T1, recombinant, soluble human ASGR-1; assay: Octet BLI dissociation, pH 7.4 minus calcium
Summary of the method: as §1

Binder | % Change Compared to pH 7.4 + Calcium [1] [%] | % Change Compared to pH 7.4 + Calcium [2] [%] | % Change Compared to pH 7.4 + Calcium [3] [%]
63A10 (antibody, V domains shown, hybridoma mAb) VH: EVQLVESGGGLVQPGGSLRLSCAASGFTFSSYSMNWVRQAPGKGLEWVSYISSSTSTIYYAASVKGRFTISRDNAKNSLYLQMNSLRDEDTAVYYCARDHRYYDSSGYYSDAFDIWGQGTMVTVSS VL: NFMLTQPHSVSESPGKTVTISCTRSNGSIVSNYVQWYQQRPGSSPTTVIYEDKRRPSGVPDRFSGSIDSSSNSASLTISGLKTEDEADYYCQSYDSINVVFGGGTKLTVL | 3 | 47 | 8
63G7 (antibody, V domains shown, hybridoma mAb) VH: EVQLVESGGGLVQPGGSLRLSCAASGFTFSSYSMNWVRQAPGKGLEWVSYISSSTSTIYYAASVKGRFTISRDNAKNSLYLQMNSLRDEDTAVYYCARDHRYYDSSGYYSDAFDIWGQGTMVTVSS VL: NFMLTQPHSVSESPGKTVTISCTRSNGSIVSNYVQWYQQRPGSSPTTMIYEDSRRPSGVPDRFSGSIDSSSNSASLTISGLKTEDEADYSCQSYDGINVVFGGGTKLTVL | 15 | 59 | 20
6G6 (antibody, V domains shown, hybridoma mAb) VH: QVQLVQSGAEVRKPGASVKVSCKASGYTFTNYDINWVRQATGQGPEWMGWMHPNSGNTGYAKKFQGRVTMTRNTSISAAYMVLSSLRSEDTAVYYCALSSGWYYFDYWGQGTLVTVSS VL: not shown | -3 | 0 | 1
68G6 (antibody, V domains shown, hybridoma mAb) VH: QVQLVQFGGEVKKPGSSVKVSCKASGYTFTGYYMHWVRQAPGQGLEWMGSIYRNSGGTNYAQKFQGRVTMTRDKSISTAYMEKSRIRSDDTAVYYCARAFYYGSGTYYNEFDYWGQGTLVTVSS VL: SYEVTQPPSVSVSPGQTASITCSGDKLGDKYTYWYQQKAGQSPFLVIYQDRKRPSGIPDRFSGSNSGNTATLTISGTQAMDAADFYCQAWDNSTAVFGGGTKLTVL | 39 | 47 | 22
60E8 (antibody, V domains shown, hybridoma mAb) VH: QVQLQESGPGLVRPSATLSLTCTVSGGSISRSSYYWGWIRQPPGKGLEWIGSIYYSGSASYNPSLKSRVTISVDTSENQFSLRLSSVTAADTAVYYCARLDSGWSFDYWGQGTLVTVSS VL: DIQMTQSPSSLSASVGDRVTFTCRASQGIRNDLGWFQQKPGKAPKRLIYAASSLQSGVPSRFSGSGSGTEFTLTISSLQPEDFATYYCLQHSSYPLTFGGGTKVEIK | 11 | 18 | 3
64B12 (antibody, V domains shown, hybridoma mAb) VH: QLQLQESGPGLVKPSETLSLTCTVSGVSISRSSYYWGWIRQPPGKGLEWIGSIYYSGSTSYNPSLKSRVTISVDTSKNQFSLKLSSVTAADTAVYYCARLDSGWSFDYWGQGTLVTVSS VL: DIQMTQSPSSLSASVGDRVTITCRASQDISNYLNWYQQKPGTAPNLLISDASILETGVPSTFSGSGSGTDFTFTISSLQPEDIATYYCQQSDNLPCSFGQGTKVEIK | 6 | 7 | 6
7F4 (antibody, V domains shown, hybridoma mAb) VH: QLQLQESGPGLVKPSETLSLTCTVSGGSISRSSYYWGWIRQPPGKGLEWIGNIYYSGATYYNPSLKSRVTISVDTSTNQFSLKLSSVTAADTAVYYCARHSGSWSLDYWGQGTLVTVSS VL: DIQMTQSPSSLSASVGDRVTITCRTSQGIRNDLGWYQQKPGKAPKRLIYAASNLQSGVPSRFSGSGSGTEFTLTISSLQPEDFATYYCLQHSAYPLTFGGGTKVEIK | 6 | 9 | 4
4B3 (antibody, V domains shown, hybridoma mAb) VH: not shown VL: SYELTQPPSVSVSPRQTVSITCSGDKLGDKYACWYQQKPGQSPVLVIYQDRKRPSGIPERFSGSNSGNTATLTISGTQAMDEADYYCQAWDNNTVIFGGGTKLTVL | 33 | 45 | 12
52H1 (antibody, V domains shown, hybridoma mAb) VH: QVQLVESGGGVVQPGRSLRLSCAASGFTFSGYGMHWVRQAPGKGLEWVAVIWYDGSNKYYADSVKGRFTISRDNSKNTLYLQMNSLRAEDTAVYYCARDRVYCSSSSCSYYYYYYGMDVWGQGTTVTVSS VL: SYELTQPPSVFVSPGQTASITSSGDKLGDKYVSWYQQKPGQSPVLVIYQDRKRPSGIPERFSGSNSGNTATLTISGTQAMDEADYYCQAWDNSTVVFGGGTKLTVL | -1 | 10 | 5
58G11 (antibody, V domains shown, hybridoma mAb) VH: EVQLVESGGGLVQPGGSLRLSCAASGFTFSSYSMNWVRQAPGKGLEWISYISTSSSTIFYADSVKGRFTISRDSAKNSLYLQMNSLRDEDTAVYYCARGDTAMVLYYYGMDVWGQGTTVTVSS VL: SYELTQPPSVSVSPGQTASITCSGDKLGDKYASWYQQKPGQSPVLVIYQDNKRPSGIPERFSGSNSGNTATLTISGTQAMDEADYYCQAWNNNTVMFGGGTKLTVL | 12 | 51 | 38
59F2 (antibody, V domains shown, hybridoma mAb) VH: EVQLVESGGGLVQPGGSLRLSCGASGFTFSSYSMNWVRQAPGKGLEWVSYISGSSNIIYYTDSVKGRFTISRDNAKNSLYLQMNSLRDEDTAVYYCARADTPMVLYFYGMDVWGQGTTVTVSS VL: SYELTQPPSVSVSPGQTASITCSGDKLGDKYASWYQQRPGQSPVLVIYQDNKRPSGIPERFSGSNSGNTATLTISGTQAMDEADYYCQAWDNNTVVFGGGTKLTVL | 52 | 74 | 48
72B4 (antibody, V domains shown, hybridoma mAb) VH: not shown VL: SYELTQPPSVSVSPGQTASITCSGDKLGDKYAWWYQQRPGQSPVLVIYEDRKRPSGIPERFSGSNSGNTATLTISGTQAMDEADYYCQAWDNSTVVFGGGTKLTVL | 26 | 43 | 32
60D2 (antibody, V domains shown, hybridoma mAb) VH: EVQLVESGGGLVQPGGSLRLSCGASGFTFSSYSMNWVRQAPGKGLEWVSYISESSNIIYYTDSVKGRFTISRDNAMNSLYLQMNSLRDEDTAVYYCARADTPMVLYFYGMDVWGQGTTVTVSS VL: SYELTQPPSVSVSPGQTASITCSGNKLGDKYASWYQQRPGQSPVLVIYQDNKRPSGIPERFSGSNSGNTATLTISGTQTMDEADYYCQAWDNNTVVFGGGTKLTVL | 42 | 49 | 20
65F10 (antibody, V domains shown, hybridoma mAb) VH: QVQLVQSGAEVKKPGASVKVSCKASGYTFTGYHMHWVRQAPGQGLEWMGWINPNNGGTSYAQKFQDRVNMTRDTSISTAYMELSRLRSDDTAVYYCARDSRSSWDYWGQGTLVTVSS VL: DIQMTQSPSSVSASVGDRVTITCRGGQGISTWLAWYQQKPGKAPKLLIYAASILQSGVPSRFRGRGSGTDFTLTISSLQPEDFATYYCQQGNIFPFTFGRGTKVDIK | 18 | 37 | 25
7E11 (antibody, V domains shown, hybridoma mAb) VH: QVQLVESGGGVVQPGRSLRLSCAASGFTFSSFGMHWVRQAPGKGLEWVAIIWHDGSNKYYADSVKGRFTISRDNSNNTLYLQMSSLRAEDTAVYYCARDLSMGGMDVWGQGTTVTVSS VL: DIQMTQSPSSLSASVGDRVTIACRASQNIISYLNWYQQKPGKAPKFLIYTASSLQSGVPSRFSGSGSGTDFTLTISSLQPEDFAIYYCQQTYSTPLTFGGGTKVEIK | 5 | 14 | 9
6D9 (antibody, V domains shown, hybridoma mAb) VH: EVQLVESGGGLVKPGGSLRLSCAASGFTFSNAWMNWVRLAPGKGLEWVGRIKSKTDGGTTDYAAPVKGRFTISRDDSENTLYLQMNSLKTEDTAVYYCSTDTGPIAARLAYYYYYAMDVWGQGTTVTVSS VL: not shown | 25 | 42 | 14
50G9 (antibody, V domains shown, hybridoma mAb) VH: QVQLVESGGGVVQPGRSLRLSCAASGFIFSSYGMHWVRQAPGKGLEWVAVISQDGIIRYYADSVKGRFTISRDNSKNTLYLQMNSLRAEDTAVYYCARDVKQWLVRTYGMDVWGQGTTVTVSS VL: SYELTQPPSVSVSPGQTASITCSGDKLGDKYACWYQQKPGQSPVLVIYQDSKRPSGIPERFSGSNSGNTATLTISGTQARDEAEYYCQARNSRRGVFGGGTRLTVL | 62 | 44 | 37
